For one assay, the target named is mouse B6 class I antigens (mouse). Put plainly: RMA-S cell MHC stabilisation, peptide 25 ug/ml, flow cytometry with FITC anti-D^b or anti-K^b; % increase of MFI over medium alone. A general note: Flow cytometry measures light scatter and fluorescence of single cells or particles in a stream.
On to NQMNLGATL [WT1 peptide p239-247 (…)], for which the Binding Affinity to Mouse MHC Class I turned out to be 1%.
Same read-out and setting: the figure for NLYQMTSQL [WT1 peptide p225-233 (…)] is 5.8%.
Regarding SCLESQPAI [WT1 peptide human p136-144 (…)], the Binding Affinity to Mouse MHC Class I turned out to be 52%.
The molecule QMTSQLECM [WT1 peptide p228-236 (…)] gave a Binding Affinity to Mouse MHC Class I of 1.2%.
ALLPAVPSL [WT1 peptide human p10-18 (…)] returned a Binding Affinity to Mouse MHC Class I of 2.2%.
Still for that read-out and setting: under YSSDNLYQM [WT1 peptide p221-229 (…)] stands 0.8%; under CMTWNQMNL [WT1 peptide p235-243 (…)], 33.6%; under GCNKRYFKL [WT1 peptide p329-337 (…)], 1.2%.

Another assay has the same target. Put plainly: Binding of 9-mer peptides within p117-139 to mouse B6 (H-2^b) class I; RMA-S cell MHC stabilisation, flow cytometry.
Regarding PSQASSGQA [WT1 peptide P117-125 (…)], the Binding Affinity to Mouse MHC Class I was 2%.
For the molecule QARMFPNAP [WT1 peptide P124-132 (…)], the Binding Affinity to Mouse MHC Class I was found to be 1%.
Molecule APYLPSCLE [WT1 peptide P131-139 (…)] registered a Binding Affinity to Mouse MHC Class I of 1%.
On the same count and under the same terms, the figure for MFPNAPYLP [WT1 peptide P127-135 (…)] is 2%.
Same read-out and setting: the figure for ARMFPNAPY [WT1 peptide P125-133 (…)] is 1%; for PNAPYLPSC [WT1 peptide P129-137 (…)] it is 1%.
On to ASSGQARMF [WT1 peptide P120-128 (…)], for which the Binding Affinity to Mouse MHC Class I is 1%.
On to FPNAPYLPS [WT1 peptide P128-136 (…)], for which the Binding Affinity to Mouse MHC Class I came out at 1%.
Turning to NAPYLPSCL [WT1 peptide P130-138 (…)], the Binding Affinity to Mouse MHC Class I turned out to be 79%.
SSGQARMFP [WT1 peptide P121-129 (…)] displayed a Binding Affinity to Mouse MHC Class I of 1%.
For SQASSGQAR [WT1 peptide P118-126 (…)], the Binding Affinity to Mouse MHC Class I came to 2%.
The same measure, in the same setting: the figure for QASSGQARM [WT1 peptide P119-127 (…)] is 2%.

For the origin of these results see patent US20070026008A1.
